# Measured values as given in patent US20240181073A1, “Antibody-Drug Conjugates Comprising an Anti-BCMA Antibody” (Sorrento Therapeutics, Inc., priority 2021, published 2024).
# Numbering of substitutions follows the chain as printed.
# T1: Human BCMA (B Cell Maturation Antigen) (human, UniProt Q02223 1-184)
# T1 sequence: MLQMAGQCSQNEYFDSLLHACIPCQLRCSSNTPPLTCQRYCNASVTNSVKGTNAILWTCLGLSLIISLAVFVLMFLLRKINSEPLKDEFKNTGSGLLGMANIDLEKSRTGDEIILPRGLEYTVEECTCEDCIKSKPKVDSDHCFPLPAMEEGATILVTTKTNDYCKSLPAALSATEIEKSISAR
# B1: anti-BCMA-AB1-Compound 50 (antibody, human IgG1, V domains shown)
# VH: EVQLVESGGGLVKPGGSLRLSCAASGFTSSTAWMSWVRQAPGKGLEWVGRIKSKSDGGTTDYAAPVKGRFTISRDDSKNTLFLQMNSLKTEDTAVYYCAKGGGTYGYWGQGTTVTVSS
# VL: QSVLTQPASVSGSPGQSVTISCTGTSSAHGGHYYVSWYQQHPGKAPKLMIYDVSNRPSGVSNRFSGSKSGNTASLTISGLQAEDEADYYCGSYTSSGSYVFGTGTKLTVL
# modifications: drug-linker Compound 50 on antibody cysteine thiols (C-lock linkage; positions not stated)
# B2: ADC-53 (conjugate)
# VH: B1 VH
# VL: B1 VL
# B3: BCMA-AB1-8 (conjugate)
# VH: B1 VH
# VL: B1 VL
# B4: BCMA-AB1-2: Compound 2 conjugated with anti-BCMA antibody clone BCA7-2C5 (AB1); DAR 3.4 (conjugate)
# VH: B1 VH
# VL: B1 VL
# B5: BCMA-AB1-1: Compound 1 conjugated with anti-BCMA antibody clone BCA7-2C5 (AB1); DAR 3.8 (conjugate)
# VH: B1 VH
# VL: B1 VL
# B6: ADC-50 (conjugate)
# VH: B1 VH
# VL: B1 VL
# B7: anti-BCMA-AB1-Compound 3 (antibody, human IgG1, V domains shown)
# VH: B1 VH
# VL: B1 VL
# modifications: drug-linker Compound 3 on antibody cysteine thiols (C-lock conjugation; positions not stated)
# B8: anti-BCMA-AB1-Compound 51 (antibody, human IgG1, V domains shown)
# VH: B1 VH
# VL: B1 VL
# modifications: drug-linker Compound 51 on antibody cysteine thiols (C-lock linkage; positions not stated)
# B9: anti-BCMA-AB1-Compound 53 (antibody, human IgG1, V domains shown)
# VH: B1 VH
# VL: B1 VL
# modifications: drug-linker Compound 53 conjugated to the antibody (PFP linkage; residues not stated)
# B10: anti-BCMA-AB1-Compound 52 (antibody, human IgG1, V domains shown)
# VH: B1 VH
# VL: B1 VL
# modifications: drug-linker Compound 52 on antibody cysteine thiols (C-lock linkage; positions not stated)
# B11: ADC-52 (conjugate)
# VH: B1 VH
# VL: B1 VL
# B12: ADC-51 (conjugate)
# VH: B1 VH
# VL: B1 VL
# B13: BCMA-AB2-3: Compound 3 conjugated with anti-BCMA antibody clone BCA7-2E1 (AB2) (conjugate)
# VH: B1 VH
# VL: B1 VL with V3A, A28D, H29G, Y33T, G59W
# What was measured:
# [1] = molecular target: T1, Human BCMA (B Cell Maturation Antigen); experiment: cell-based or functional assay
# [2] = tested on: BCMA-negative K562; experiment: In vitro cytotoxicity assay (CellTiter-Glo 2.0, 384-well), Example B2; type: cell-based, human; conditions: 5-day assays, FIG. 8
# Procedure: (§1) The in vitro efficacies of ADCs anti-BCMA-Compound 50, anti-BCMA-Compound 51, anti-BCMA-Compound 52, and anti-BCMA-Compound 53, were compared to anti-BCMA-Compound 3. Anti-BCMA-AB1 clone was conjugated with compounds 50, 51, 52, 53 or 3 and the ADCs were evaluated using the following human cancer cell lines: BCMA-negative K562 and BCMA-positive NCI-H929, purchased from the American Type Culture Collection (ATCC; Manassas, VA).
# (§2) Cell Culture Method: The cell lines were cultured in RPMI-1640 medium (Catalog #10-041-CV: Corning) supplemented with 10-20% fetal bovine serum (FBS; Catalog #MT35011CV; Corning) and 1× penicillin-streptomycin (Catalog #30-002-Cl, Corning) and maintained at 37° C. in a 5% C02 humidified environment. Viable cell counts were made by Trypan blue exclusion using a Countess or Countess II automated cell counter.
# (§3) The in vitro assays were performed as follows: All cells were harvested by removal of a portion of the cell culture suspension followed by centrifugation at 300 g for 5 minutes, followed by resuspension in cell culture medium (described above in Cell Culture method), viable cell count (as described above in Cell Culture method), and then seeded into 384-well white wall clear bottom plates (Catalog #3765, Corning) at a density of 2,500 cells/well in growth media. Plates were maintained at 37° C. The outer wells of plates contained medium only and were used for background subtraction for the cell viability assay. Working solutions of test articles were prepared at 2× final concentrations with 5-fold serial dilutions in complete growth medium. Cell treatment was performed in either technical triplicates or duplicates and maintained at 37° C. for 120-hour assay. After treatment, cell viability was determined by CellTiter-Glo 2.0 assay (Catalog #G9243; Promega; Madison, WI, USA) based on the manufacturer's instructions. CellTiter Glo reagent reacts with ATP in metabolically active cells to give a luminescent readout that is directly proportional to the number of viable cells. Briefly, plates were removed from the incubator and equilibrated to room temperature before addition of CellTiter Glo reagent. Luminescence was measured using a Tecan Spark microplate reader (Tecan; Mannedorf, Switzerland).
# (§4) Data Analysis: For Cytotoxicity assays, raw luminescence data was background subtracted with average luminescence from the outer wells containing medium only and normalized to untreated controls using Excel (Microsoft; Albuquerque, NM). Dose-response relationships and EC50 values were determined based on non-linear regression analysis of normalized data fit to a four-parameter logistic equation using GraphPad Prism 8.0.
# [3] = tested on: BCMA-positive NCI-H929; experiment: as above; type: cell-based, human; conditions: for effect on NCI-H929 cell viability: 5-day assays, FIG. 8; for EC50 order of magnitude: comparison of linker chemistry among C-lock conjugations
# Procedure: as §1, §2, §3, §4
# [4] = tested on: NCI-H929 (BCMA+) cells; experiment: In vitro cell viability assay (Cell Titer-Glo 2.0), Example B1; type: cell-based, human; conditions: 4-day assays, FIG. 2A
# Procedure: (§5) The in vitro efficacies of ADCs anti-BCMA-Compound 1, anti-BCMA-Compound 2, anti-BCMA-Compound 3, anti-BCMA-Compound 4, anti-BCMA-Compound 5, anti-BCMA-Compound 6, anti-BCMA-Compound 7, and anti-BCMA-Compound 8, were evaluated using the following human cancer cell lines: K562, MM.1R and NCI-H929, purchased from the American Type Culture Collection (ATCC; Manassas, VA). The cells were cultured in RPMI-1640 medium (Gibco ThermoFisher; Waltham, MA) supplemented with 10% heat-inactivated fetal bovine serum (FBS: Corning; Corning, NY, USA) and 1× penicillin-streptomycin (Corning) and maintained at 37° C. in a 5% CO2 humidified environment.
# (§6) The in vitro assays were performed as follows: Tumor cells were harvested by centrifugation at 300 g for 5 minutes and plated into 96-well clear bottom white-walled plates (5,000 to 10,000 cells/well in 50 μL complete medium) and maintained at 37° C. Cells were then treated in duplicate with 50 μL of test articles prepared at 2× final concentration that were serially diluted in complete medium and incubated at 37° C. for up to 120 hrs. After treatment, inhibition of cancer cell growth was determined using the Cell Titer-Glo® 2.0 Cell Viability Assay (Promega; Madison, WI, USA) as described by the manufacturers' protocol. Luminescence was measured using a Perkin-Elmer Envision 2104 Microplate Reader (Waltham, MA).
# (§7) Data were normalized to non-treated controls using Microsoft Excel (Redmond, WA, USA) and analyzed using GraphPad Prism software (version 8; La Jolla, CA, USA). Half-maximal effective concentrations (EC50) were derived from dose response curves were generated using non-linear regression analysis fit to a 4-parameter logistic equation.
# [5] = tested on: K562 (BCMA −) cells; experiment: as above; type: cell-based, human; conditions: Table 4; 5-day assays; AB1 clone; read-out: EC50 Values, Cell Line K562
# Procedure: as §5, §6, §7
# [6] = molecular target: T1, Human BCMA (B Cell Maturation Antigen); experiment: cell-based or functional assay; remark: listed apart in the source
# [7] = molecular target: T1, Human BCMA (B Cell Maturation Antigen); experiment: cell-based or functional assay; remark: listed apart in the source
# [8] = tested on: NCI-H929 tumor xenograft; experiment: In vivo efficacy, NCI-H929 tumor xenograft in SCID beige mice; parameters: species or system CB17 SCID beige mice; conditions: Experiment IV, FIG. 6
# Procedure: Female CB17 SCID beige mice, 6 weeks of age, were purchased from Charles River Laboratories.
# Human multiple myeloma tumor cell lines NCI-H929 and OPM2 were cultured and expanded in RPMI 1640 medium supplemented with 10% FBS, 100 units/ml of penicillin and 100 μg/ml of streptomycin at 37° C. in a 5% CO2 humidified environment for a period of 2-3 weeks before harvesting for implantation. Cell viability determined by Trypan blue dye exclusion assay was >90% before implantation. 5 million of OPM2 or NCI-H929 cells in 100 μl of PBS—Matrigel 1:1 (v/v) mixture were inoculated to the right upper flank of each mouse by s.c. injection.
# Tumor volume measurement was started at day 14 after tumor cell inoculation and performed twice weekly. The longest longitudinal diameter as length and the widest transverse diameter as width were measured by using a digital caliper. Tumor volume (TV) were then calculated by the formula: TV=[length×(width)^2]/2 and were analyzed in Excel.
# The treatment was started when average tumor size reaches ˜400, 200 and 150 mm^3 for NCI-H929 tumor xenografts in Experiment I, III and IV, respectively, or ˜240 mm^3 for OPM2 tumor xenograft in Experiment I.
# Mice were euthanized when tumor size reached 2000 mm^3.
# After tumor-bearing mice were randomized, anti-BCMA antibody (BCMA-AB1 or BCMA-AB2), anti-BCMA antibody conjugate with Compound 3 (BCMA-AB1-3 or BCMA-AB2-3) or iso-type antibody conjugate with Compound 3 (iso-3) diluted in PBS were administered to mice through i.p. injections. Treatment regimens included 8 mg/kg once, 4 mg/kg Q1W×2 and 2 mg/kg biw×4 of anti-BCMA-AB1 or anti-BCMA-AB1-Compound 3 in Experiment I (FIG. 3); 2 mg/kg biw×4 and 0.67 mg/kg biw×4 of anti-BCMA-AB1 or anti-BCMA-AB1-Compound 3 in Experiment II (FIG. 4); 1, 2, 4, and 8 mg/kg once of anti-BCMA-AB1-Compound 3 or iso-3 in Experiment III (FIG. 5); and 4 mg/kg biw×4 of anti-BCMA-AB2 or 2 and 4 mg/kg biw×4 of anti-BCMA-AB2-Compound 3 in Experiment IV (FIG. 6).
# Raw data of tumor measurements were analyzed in Excel. Tumor growth curves were plotted using GraphPad Prism 8.0 software and values were presented as mean t SEM.
molecule,measurement,setting,value
B1,"EC50 of cell viability (CellTiter-Glo 2.0), NCI-H929 (BCMA-positive) cells, 120-hour assay",[1],0.762 nM
B2,activity against K562 cells,[2],did not show activity
same,effect on NCI-H929 cell viability,[3],dose-dependently reduced
B3,cell killing of NCI-H929,[4],"comparable activity to the Gly2 peptide linker ADC, anti-BCMA-AB1-7"
B4,EC50,[5],> 100 nM
B5,EC50,[5],> 100 nM
B6,activity against K562 cells,[2],did not show activity
same,effect on NCI-H929 cell viability,[3],dose-dependently reduced
same,"decrease in potency, ADC-50 (C-lock linkage) relative to ADC-53 (PFP linkage)",[3]; NCI-H929,more than 2 fold
same,EC50,"[3]; Table 7, 120-hour (5-day) assay, AB1 clone",0.76 nM
same,EC50 order of magnitude,[3],sub-nanomolar
B7,"EC50 of cell viability (Cell Titer-Glo), MM.1R (BCMA+) cells, 5-day assay",[6],2.28 nM
same,"EC50 of cell viability (Cell Titer-Glo), NCI-H929 (BCMA+) cells, 5-day assay",[6],0.699 nM
same,"EC50 of cell viability (Cell Titer-Glo), MM.1R (BCMA+) cells, 4-day assay",[7],10 nM
same,"EC50 of cell viability (Cell Titer-Glo), NCI-H929 (BCMA+) cells, 4-day assay",[7],2.21 nM
same,"EC50 of cell viability (CellTiter-Glo 2.0), NCI-H929 (BCMA-positive) cells, 120-hour assay",[1],0.368 nM
B8,"EC50 of cell viability (CellTiter-Glo 2.0), NCI-H929 (BCMA-positive) cells, 120-hour assay",[1],1.93 nM
B9,"EC50 of cell viability (CellTiter-Glo 2.0), NCI-H929 (BCMA-positive) cells, 120-hour assay",[1],0.398 nM
B10,"EC50 of cell viability (CellTiter-Glo 2.0), NCI-H929 (BCMA-positive) cells, 120-hour assay",[1],0.169 nM
B11,activity against K562 cells,[2],did not show activity
same,effect on NCI-H929 cell viability,[3],dose-dependently reduced
same,enhanced potency compared to ADC-3,[3]; NCI-H929,~2 fold
same,EC50 order of magnitude,[3],sub-nanomolar
B12,activity against K562 cells,[2],did not show activity
same,effect on NCI-H929 cell viability,[3],dose-dependently reduced
same,EC50 order of magnitude,[3],single digit nanomolar
B13,tumor regression / elimination,[8]; both regimens,induced dramatic and prolonged tumor regressions and eliminated all tumors in about two weeks after initial treatments
same,tumor growth,"[8]; i.p., 2 and 4 mg/kg biw×4",significantly inhibited tumor growth
